Laboratory results taken from US20090311243A1.
One block for each substance: values may come before it.

How the values were obtained:
human Fzd8 (human) = human Fzd8 (human) (UniProt Q9H461); test: cell-based or functional assay
[1] = molecular target: recombinant Wnt3a protein (R&D systems); test: cell-based or functional assay

UniProt Q9H461, sequence (Q9H461 28-694): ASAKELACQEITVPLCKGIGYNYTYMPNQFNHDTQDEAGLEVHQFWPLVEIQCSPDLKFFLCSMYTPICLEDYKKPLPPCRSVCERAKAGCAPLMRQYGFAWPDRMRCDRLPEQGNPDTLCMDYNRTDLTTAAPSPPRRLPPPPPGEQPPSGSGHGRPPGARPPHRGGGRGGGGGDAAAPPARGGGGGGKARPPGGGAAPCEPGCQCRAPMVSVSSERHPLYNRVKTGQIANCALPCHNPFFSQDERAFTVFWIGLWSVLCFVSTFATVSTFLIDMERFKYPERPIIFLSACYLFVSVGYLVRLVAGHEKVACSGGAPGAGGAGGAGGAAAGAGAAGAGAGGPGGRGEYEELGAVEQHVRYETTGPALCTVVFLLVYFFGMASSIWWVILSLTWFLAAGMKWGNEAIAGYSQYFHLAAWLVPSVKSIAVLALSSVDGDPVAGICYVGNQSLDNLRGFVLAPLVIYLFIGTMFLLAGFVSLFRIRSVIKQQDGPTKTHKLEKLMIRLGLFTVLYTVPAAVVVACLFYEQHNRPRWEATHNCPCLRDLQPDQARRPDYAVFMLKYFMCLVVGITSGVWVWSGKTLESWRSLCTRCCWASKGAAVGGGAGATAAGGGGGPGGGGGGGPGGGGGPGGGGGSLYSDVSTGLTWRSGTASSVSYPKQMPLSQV
recombinant Wnt3a protein (R&D systems), sequence (P27467 19-352): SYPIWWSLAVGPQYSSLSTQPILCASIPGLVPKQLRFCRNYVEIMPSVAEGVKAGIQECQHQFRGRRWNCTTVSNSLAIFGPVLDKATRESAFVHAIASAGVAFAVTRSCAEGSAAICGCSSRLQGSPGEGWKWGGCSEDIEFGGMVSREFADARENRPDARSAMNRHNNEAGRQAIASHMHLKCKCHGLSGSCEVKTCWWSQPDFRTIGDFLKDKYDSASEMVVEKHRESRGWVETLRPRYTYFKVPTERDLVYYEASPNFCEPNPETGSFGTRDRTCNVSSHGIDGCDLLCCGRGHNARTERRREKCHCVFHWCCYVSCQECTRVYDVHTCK

- Wnt8a mediated SOX9 mRNA reduction in primary chondrocytes, rescue by Fzd8 siRNA (quantitative PCR) (human Fzd8 (human)): 52%
Substance: human Wnt8a (from UniProt Q9H1J5 25-351) (ligand)

- ND50, inhibition of Wnt3a-induced TCF reporter luciferase activity in Fzd8:CHOK1 cells [1]: 0.027 µg/mL
Substance: murine Fzd8 CRD Fc fusion (R&D systems) (from UniProt Q61091 28-173)

- TCF/LEF reporter (TOPFlash) luciferase activity, normalized to Renilla luciferase (human Fzd8 (human)): 10.4 fold
Substance: recombinant Wnt3a protein (R&D systems) (ligand)
